pKd: −log10 of the molar value.
What was measured:
[1] = biological target: Escherichia coli YidC, cysteine-less, with a cysteine introduced at position 405 (WT in the FRET assay) (Escherichia coli) (UniProt P25714); assay: FRET or BRET; labelled Pf3 coat added in steps (60, 60, 150, 150, 150, 300, 300 nM; final 1.17 uM; 1 min each) to DOPC proteoliposomes with 300 nM labelled YidC; excitation 500 nm, acceptor signal at 669 nm; room temperature
[2] = biological target: Escherichia coli YidC R366E/F433S, cysteine-less, with a cysteine introduced at position 405 (Escherichia coli) (UniProt P25714); assay: as above

pKd [1]: 6.62
pKd [2]: 6.46
Substance: Pf3 coat protein, fluorescently labelled at residue 48 (from UniProt P03623 1-44) (natural protein)

— paper PMC8920935
